Test results: PMC10043284

Molecular target: PANX2EM (residues 1-372 of human pannexin 2 with a C-terminal thermostabilized BRIL) (UniProt Q96RD6)
Test: cryo-EM structure; purified PANX2EM (~6 mg/ml) in 20 mM Tris pH 8.0, 150 mM NaCl, 40 uM GDN, with 1 mM Fluorinated Fos-Choline 8; single-particle analysis, C7 symmetry, 3.92 Å; C1 reconstruction aligned with it

stoichiometry N: 7
Substance: PANX2EM (residues 1-372 of human pannexin 2 with a C-terminal thermostabilized BRIL) (from UniProt Q96RD6-3 1-372)
